Assay: soluble on expression in E. coli; label from the status in PepcDB or PDB records

**Q.** Which “soluble on expression in E. coli” value does the source give for “MGSDKIHHHHHHMTTAADLSVFEQLDLPDTSLTRDTFAFAAQATPAFIHDHCVRSYVFARAHAQNQGLRAGTDYDDELLFVSCVLHDLGLSEEGSNGDQRFEVDGADIAAAFLRERGVEEERIAVAWDAIALHTSEGIASRKGTEVALAHLGIATDILGIQRESLPAGLADEVHALLPRQDLAHGFSDLIITQAVAKPHKASPTNFIGDLLRRHLPYGAYPNWYDLIDAAGWGDKPVGVTARRRAETPQQVGTLFMEYLEAGDVEGLVSLYEPNAHFVPTPGTHLVGTDAIREAMRQMVDSGARLKLEQREIRQVDDIALVSNNAILTGIGPEPVVSTTTEILRRQPDGGWVHAVDDPFFS” here?
**A.** Its value is “not soluble”.

**Q.** With “PAIDYKTAFHLAPIGLVLSRDRVIEDCNDELAAIFRCARADLIGRSFEVLYPSSDEFERIGERISPVMIAHGSYADDRIMKRAGGELFWCHVTGRALDRTAPLAAGVWTFEDLSATRRVA” as the sequence, how does the “soluble on expression in E. coli” value read?
**A.** Its value is “soluble”.

**Q.** For “MAHHHHHHMSTSLRHTALHAFHVGRRARMAPFSGYDMPINYAAGAVREHLHTREAASIFDVSHFGVVEVFGADREKFLEWLTPSAPSRMPSGKAALTMFLNDRAGVKDDCIVTRYDDRLVVVVNAGCKDKMIAYMRQSVADFTGDVALEMEDRAIVTVQGPKAASALAPHVEDLDKLLFMQGRQDVDIRGMRIKTLTRCSYSGEDGFDIVMREEDALPIVELLLQNPDVQAAGLAARDTLRTEAGLNLYSHELSEDIDPVAARCMWCVPKHRMTEGGFVGHERLAQLVKKAKELVPRVRVGILAAPERGPIPRNGTPVLVEGKCVGVVTSGVPSPTLGRNIALGYVDRSYSNIGQQVGLDVRGKLVKAEIVNSRFVAPRYYRG”, which “soluble on expression in E. coli” value is on record?
**A.** Its value is “not soluble”.

**Q.** Which “soluble on expression in E. coli” value does the source give for “MESVYLFSSGTLKRKANTICLETESGRKYIPVENVMDIKVFGEVDLNKRFLEFLSQKRIPIHFFNREGYYVGTFYPREYLNSGFLILKQAEHYINQEKRMLIAREIVSRSFQNMVDFLKKRKVRADSLTRYKKKAEEASNVSELMGIEGNAREEYYSMIDSLVSDERFRIEKRTRRPPKNFANTLISFGNSLLYTTVLSLIYQTHLDPRIGYLHETNFRRFSLNLDIAELFKPAVVDRLFLNLVNTRQINEKHFDEISEGLMLNDEGKSLFVKNYEQALRETVFHKKLNRYVSMRSLIKMELHKLEKHLIGEQVFGSEE” here?
**A.** The value was “soluble”.

**Q.** For “MKISTKGRYGLTIMIELAKKYGDRPISLRSIAKANNLSEHYLEQLVTPLRNAGLVKSIRGAYGGYVLAEHPAKITAGDILRVLEGPLTPVEELEEEEPAKRELWIRIRDAVEEVLDSTTLEDLAKYSDGDEGAYMFYI”, which “soluble on expression in E. coli” value is on record?
**A.** Its value is “not soluble”.

**Q.** Which “soluble on expression in E. coli” value does the source give for “MEHKLEDIIAIFNQCFEEEYNTRLVKGGDEPIYLPANDEVPYNAIYFARGFYSSALHEIAHWLVAGKERRKLEDFGYWYEPDGRSEERQRDFEKVEVKPQALEWILATAAGFRYFASADNLNGNPGDTQPFKQAVYEQVKIYAEKGLPKRAETLRKALVAFYSTEDDINLAKFDVTCI” here?
**A.** Its value is “not soluble”.

**Q.** For “MCLEDSDAGASNEYDSSPAAWNKEDFPWSGKVKDILQNVFKLEKFRPLQLETINVTMAGKEVFLVMPTGGGKSLCYQLPALCSDGFTLVICPLISLMEDQLMVLKQLGISATMLNASSSKEHVKWVHAEMVNKNSELKLIYVTPEKIAKSKMFMSRLEKAYEARRFTRIAVDEVHCCSQWGHDFRPDYKALGILKRQFPNASLIGLTATATNHVLTDAQKILCIEKCFTFTASFNRPNLYYEVRQKPSNTEDFIEDIVKLINGRYKGQSGIIYCFSQKDSEQVTVSLQNLGIHAGAYHANLEPEDKTTVHRKWSANEIQVVVATVAFGMGIDKPDVRFVIHHSMSKSMENYYQESGRAGRDDMKADCILYYGFGDIFRISSMVVMENVGQQKLYEMVSYCQNISKCRRVLMAQHFDEVWNSEACNKMCDNCCKDSAFERKNITEYCRDLIKILKQAEELNEKLTPLKLIDSWMGKGAAKLRVAGVVAPTLPREDLEKIIAHFLIQQYLKEDYSFTAYATISYLKIGPKANLLNNEAHAITMQVTKSTQNSFRAESSQTCHSEQGDKKMEAENLYFQSHHHHHHDYKDDDDK”, which “soluble on expression in E. coli” value is on record?
**A.** Its value is “soluble”.

From the DeepSol protein solubility set
